Source: the supplement of paper PMC9112550, “Optimization of the antimicrobial peptide Bac7 by deep mutational scanning” (BMC Biology, 2022)

Test system: Escherichia coli TOP10
Assay: shrunken log2 fold change of peptide-encoding DNA abundance (4.5 h post-induction vs induction); higher = less antimicrobial activity (less host growth inhibition)
Settings: time post-induction: 4.5 h; library: site-saturation at positions 5, 18, 19, 20
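Further: peptides expressed intracellularly from a pBAD plasmid library in pooled LB shake-flask culture, induced with 0.3% L-arabinose, DNA abundance read by NGS, three biological replicates, DESeq2 with apeglm shrinkage.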

RRIRVRPPRLPRPRPRPRALPRP
shrunken log2 fold change: 0.307

RRIRYRPPRLPRPRPRPKGSPRP
shrunken log2 fold change: -0.143

RRIRQRPPRLPRPRPRPYQKPRP
shrunken log2 fold change: -0.0335

RRIRPRPPRLPRPRPRPCCTPRP
shrunken log2 fold change: -0.12

RRIRQRPPRLPRPRPRPKRCPRP
shrunken log2 fold change: 0.129

RRIRGRPPRLPRPRPRPTPKPRP
shrunken log2 fold change: 1.2

RRIRHRPPRLPRPRPRPSNNPRP
shrunken log2 fold change: -0.549

RRIRERPPRLPRPRPRPSSQPRP
shrunken log2 fold change: 0.123

RRIRMRPPRLPRPRPRPCWRPRP
shrunken log2 fold change: 0.14

RRIRVRPPRLPRPRPRPWMNPRP
shrunken log2 fold change: -0.00133

RRIRSRPPRLPRPRPRPGYSPRP
shrunken log2 fold change: -0.407

RRIRDRPPRLPRPRPRPDPAPRP
shrunken log2 fold change: 0.304

RRIRCRPPRLPRPRPRPALRPRP
shrunken log2 fold change: 0.457

RRIRCRPPRLPRPRPRPIHKPRP
shrunken log2 fold change: -0.638

RRIRRRPPRLPRPRPRPEAPPRP
shrunken log2 fold change: 0.708

RRIRERPPRLPRPRPRPWKWPRP
shrunken log2 fold change: -0.0653

RRIRHRPPRLPRPRPRPWKSPRP
shrunken log2 fold change: -0.0679

RRIRQRPPRLPRPRPRPRFYPRP
shrunken log2 fold change: -0.206

RRIRIRPPRLPRPRPRPWLWPRP
shrunken log2 fold change: -0.0533

RRIRIRPPRLPRPRPRPRKAPRP
shrunken log2 fold change: -0.000442

RRIRNRPPRLPRPRPRPQCYPRP
shrunken log2 fold change: -0.136

RRIRHRPPRLPRPRPRPDAMPRP
shrunken log2 fold change: -0.00187

RRIRPRPPRLPRPRPRPAVCPRP
shrunken log2 fold change: 0.245

RRIRQRPPRLPRPRPRPVSTPRP
shrunken log2 fold change: -0.0279

RRIRKRPPRLPRPRPRPWCCPRP
shrunken log2 fold change: -0.187

RRIRARPPRLPRPRPRPQMHPRP
shrunken log2 fold change: 1.05

RRIRKRPPRLPRPRPRPFTDPRP
shrunken log2 fold change: -0.091

RRIRGRPPRLPRPRPRPGWMPRP
shrunken log2 fold change: 0.315

RRIRIRPPRLPRPRPRPWCGPRP
shrunken log2 fold change: -0.454

RRIRKRPPRLPRPRPRPEWFPRP
shrunken log2 fold change: 0.219

RRIRKRPPRLPRPRPRPDYVPRP
shrunken log2 fold change: -0.0105

RRIRVRPPRLPRPRPRPSETPRP
shrunken log2 fold change: -0.14

RRIRGRPPRLPRPRPRPWDDPRP
shrunken log2 fold change: 0.137

RRIRIRPPRLPRPRPRPTPGPRP
shrunken log2 fold change: 0.131

RRIRWRPPRLPRPRPRPMTLPRP
shrunken log2 fold change: -0.0611

RRIRKRPPRLPRPRPRPPVTPRP
shrunken log2 fold change: 0.39

RRIRFRPPRLPRPRPRPFGRPRP
shrunken log2 fold change: -0.199

RRIRARPPRLPRPRPRPVQIPRP
shrunken log2 fold change: -0.0414

RRIRNRPPRLPRPRPRPHGWPRP
shrunken log2 fold change: 0.127

RRIRSRPPRLPRPRPRPNVIPRP
shrunken log2 fold change: 0.0185

RRIRWRPPRLPRPRPRPPSKPRP
shrunken log2 fold change: 0.104

RRIRMRPPRLPRPRPRPADEPRP
shrunken log2 fold change: -0.0062

RRIRLRPPRLPRPRPRPSAAPRP
shrunken log2 fold change: 0.419

RRIRFRPPRLPRPRPRPCDTPRP
shrunken log2 fold change: -0.09

RRIRMRPPRLPRPRPRPCKLPRP
shrunken log2 fold change: -0.00365

RRIRRRPPRLPRPRPRPNIAPRP
shrunken log2 fold change: -0.109

RRIRWRPPRLPRPRPRPTWMPRP
shrunken log2 fold change: -0.029

RRIRQRPPRLPRPRPRPPMKPRP
shrunken log2 fold change: 0.00136

RRIRVRPPRLPRPRPRPCTYPRP
shrunken log2 fold change: -0.0569

RRIRERPPRLPRPRPRPYLMPRP
shrunken log2 fold change: -0.696

RRIRFRPPRLPRPRPRPTTMPRP
shrunken log2 fold change: -0.0267

RRIRARPPRLPRPRPRPMRCPRP
shrunken log2 fold change: 0.162

RRIRIRPPRLPRPRPRPRDAPRP
shrunken log2 fold change: 0.215

RRIRWRPPRLPRPRPRPWKPPRP
shrunken log2 fold change: -0.732

RRIRKRPPRLPRPRPRPCKWPRP
shrunken log2 fold change: 0.0523

RRIRFRPPRLPRPRPRPVMAPRP
shrunken log2 fold change: -0.271

RRIRRRPPRLPRPRPRPCVTPRP
shrunken log2 fold change: -0.0627

RRIRERPPRLPRPRPRPMNRPRP
shrunken log2 fold change: -0.401

RRIRYRPPRLPRPRPRPTWEPRP
shrunken log2 fold change: -0.0387

RRIRWRPPRLPRPRPRPNNDPRP
shrunken log2 fold change: -0.213

RRIRERPPRLPRPRPRPEWMPRP
shrunken log2 fold change: 0.171

RRIRNRPPRLPRPRPRPLEYPRP
shrunken log2 fold change: -0.816

RRIRSRPPRLPRPRPRPNRMPRP
shrunken log2 fold change: 0.309

RRIRVRPPRLPRPRPRPEIEPRP
shrunken log2 fold change: 0.173

RRIRCRPPRLPRPRPRPMSTPRP
shrunken log2 fold change: -0.0888

RRIRIRPPRLPRPRPRPVVRPRP
shrunken log2 fold change: 0.11

RRIRHRPPRLPRPRPRPYPLPRP
shrunken log2 fold change: -0.641

RRIRYRPPRLPRPRPRPMNAPRP
shrunken log2 fold change: -0.00745

RRIRFRPPRLPRPRPRPLGAPRP
shrunken log2 fold change: 0.312

RRIRTRPPRLPRPRPRPQPNPRP
shrunken log2 fold change: 0.0183

RRIRKRPPRLPRPRPRPNHDPRP
shrunken log2 fold change: -0.0524

RRIRQRPPRLPRPRPRPFDCPRP
shrunken log2 fold change: -0.408

RRIRTRPPRLPRPRPRPIKAPRP
shrunken log2 fold change: -0.143

RRIRFRPPRLPRPRPRPRHMPRP
shrunken log2 fold change: -0.124

RRIRHRPPRLPRPRPRPHRVPRP
shrunken log2 fold change: 0.0179

RRIRCRPPRLPRPRPRPPTSPRP
shrunken log2 fold change: 0.428

RRIRRRPPRLPRPRPRPLYGPRP
shrunken log2 fold change: 0.0447

RRIRTRPPRLPRPRPRPRCVPRP
shrunken log2 fold change: -0.0783

RRIRQRPPRLPRPRPRPDEFPRP
shrunken log2 fold change: -0.0132

RRIRERPPRLPRPRPRPPFLPRP
shrunken log2 fold change: -0.075

RRIRGRPPRLPRPRPRPMKIPRP
shrunken log2 fold change: 0.533

RRIRERPPRLPRPRPRPKSWPRP
shrunken log2 fold change: 0.715

RRIRTRPPRLPRPRPRPFCHPRP
shrunken log2 fold change: 0.0326

RRIRVRPPRLPRPRPRPIPEPRP
shrunken log2 fold change: -0.0974

RRIRFRPPRLPRPRPRPWMIPRP
shrunken log2 fold change: -0.00776

RRIRSRPPRLPRPRPRPSHTPRP
shrunken log2 fold change: -0.572

RRIRVRPPRLPRPRPRPGFQPRP
shrunken log2 fold change: 0.302

RRIRSRPPRLPRPRPRPPFAPRP
shrunken log2 fold change: 1.88

RRIRTRPPRLPRPRPRPSQTPRP
shrunken log2 fold change: -0.169

RRIRRRPPRLPRPRPRPPGHPRP
shrunken log2 fold change: 0.507

RRIRDRPPRLPRPRPRPRTKPRP
shrunken log2 fold change: 0.16

RRIRMRPPRLPRPRPRPPLLPRP
shrunken log2 fold change: 0.515

RRIRERPPRLPRPRPRPVHAPRP
shrunken log2 fold change: -0.0762

RRIRSRPPRLPRPRPRPFSSPRP
shrunken log2 fold change: -0.113

RRIRERPPRLPRPRPRPMVEPRP
shrunken log2 fold change: -0.0932

RRIRWRPPRLPRPRPRPSQMPRP
shrunken log2 fold change: -0.681

RRIRARPPRLPRPRPRPEQKPRP
shrunken log2 fold change: 1.29

RRIRVRPPRLPRPRPRPYFRPRP
shrunken log2 fold change: -0.153

RRIRDRPPRLPRPRPRPMVLPRP
shrunken log2 fold change: 0.359

RRIRCRPPRLPRPRPRPNSVPRP
shrunken log2 fold change: -0.143

RRIRCRPPRLPRPRPRPCKGPRP
shrunken log2 fold change: 0.035

RRIRMRPPRLPRPRPRPSCMPRP
shrunken log2 fold change: -0.0641

RRIRERPPRLPRPRPRPICLPRP
shrunken log2 fold change: -0.0493

RRIRVRPPRLPRPRPRPQEDPRP
shrunken log2 fold change: -0.467

RRIRRRPPRLPRPRPRPMHQPRP
shrunken log2 fold change: -0.105

RRIRFRPPRLPRPRPRPEAKPRP
shrunken log2 fold change: 0.0369

RRIRERPPRLPRPRPRPWGWPRP
shrunken log2 fold change: 0.173

RRIRKRPPRLPRPRPRPYYFPRP
shrunken log2 fold change: -0.234

RRIRCRPPRLPRPRPRPQEAPRP
shrunken log2 fold change: 0.0141

RRIRTRPPRLPRPRPRPPVTPRP
shrunken log2 fold change: 0.361

RRIRFRPPRLPRPRPRPFSAPRP
shrunken log2 fold change: -0.274

RRIRQRPPRLPRPRPRPTHPPRP
shrunken log2 fold change: 0.374

RRIRPRPPRLPRPRPRPWQEPRP
shrunken log2 fold change: 0.00579

RRIRNRPPRLPRPRPRPYQDPRP
shrunken log2 fold change: -0.064

RRIRARPPRLPRPRPRPVPIPRP
shrunken log2 fold change: 0.0735

RRIRIRPPRLPRPRPRPLWRPRP
shrunken log2 fold change: 0.156

RRIRPRPPRLPRPRPRPDSVPRP
shrunken log2 fold change: 0.195

RRIRKRPPRLPRPRPRPSVIPRP
shrunken log2 fold change: -0.0922

RRIRIRPPRLPRPRPRPYVPPRP
shrunken log2 fold change: -0.212

RRIRDRPPRLPRPRPRPKLHPRP
shrunken log2 fold change: 0.464

RRIRCRPPRLPRPRPRPPAFPRP
shrunken log2 fold change: 0.504

RRIRYRPPRLPRPRPRPHVKPRP
shrunken log2 fold change: -0.00472

RRIRSRPPRLPRPRPRPEAKPRP
shrunken log2 fold change: 0.401

RRIRMRPPRLPRPRPRPFGMPRP
shrunken log2 fold change: -0.0241

RRIRLRPPRLPRPRPRPVYNPRP
shrunken log2 fold change: 0.41

RRIRMRPPRLPRPRPRPCQIPRP
shrunken log2 fold change: -0.0194

RRIRTRPPRLPRPRPRPYIFPRP
shrunken log2 fold change: -0.947

RRIRWRPPRLPRPRPRPCRGPRP
shrunken log2 fold change: -0.0518

RRIRARPPRLPRPRPRPYSQPRP
shrunken log2 fold change: -0.135

RRIRIRPPRLPRPRPRPLWDPRP
shrunken log2 fold change: -0.113

RRIRWRPPRLPRPRPRPQAKPRP
shrunken log2 fold change: 0.00651

RRIRSRPPRLPRPRPRPCRQPRP
shrunken log2 fold change: -0.184

RRIRWRPPRLPRPRPRPELDPRP
shrunken log2 fold change: 1.82

RRIRRRPPRLPRPRPRPNHFPRP
shrunken log2 fold change: -0.0507

RRIRPRPPRLPRPRPRPVIYPRP
shrunken log2 fold change: -0.063

RRIRHRPPRLPRPRPRPERKPRP
shrunken log2 fold change: 0.0547

RRIRIRPPRLPRPRPRPCKQPRP
shrunken log2 fold change: -0.0506

RRIRIRPPRLPRPRPRPAKVPRP
shrunken log2 fold change: -0.224

RRIRTRPPRLPRPRPRPRRAPRP
shrunken log2 fold change: 0.523

RRIRLRPPRLPRPRPRPDSKPRP
shrunken log2 fold change: -0.24

RRIRCRPPRLPRPRPRPDMYPRP
shrunken log2 fold change: -0.561

RRIRARPPRLPRPRPRPLWEPRP
shrunken log2 fold change: 0.745

RRIRRRPPRLPRPRPRPMYCPRP
shrunken log2 fold change: -0.574

RRIRERPPRLPRPRPRPWVVPRP
shrunken log2 fold change: -0.151

RRIRSRPPRLPRPRPRPQWQPRP
shrunken log2 fold change: 0.0358

RRIRLRPPRLPRPRPRPPGWPRP
shrunken log2 fold change: 0.218

RRIRARPPRLPRPRPRPWFPPRP
shrunken log2 fold change: -0.0966

RRIRDRPPRLPRPRPRPVQVPRP
shrunken log2 fold change: 0.011

RRIRPRPPRLPRPRPRPMICPRP
shrunken log2 fold change: -0.172

RRIRRRPPRLPRPRPRPLVGPRP
shrunken log2 fold change: 0.239
